Results published in US20250195685A1 (CAPSTAN THERAPEUTICS, published 2025).
Changes are numbered by the printed parent chain. Names may count otherwise. Each block holds one binder with its values, some of them ahead of it.

Columns and labels:
[1] = molecular target: T1, human CD8 on cells (CD8-overexpressing HEK293T cells, SupT1, HPB-ALL, human T cells, transfected HEK293 of … (human, UniProt P01732 22-235)); test: flow cytometry on CD8-overexpressing HEK293T cells, non-linear fit of normalized gMFI
T1 construct: whole, on cells; also called cell surface CD8
Method: To obtain the results shown in FIG. 3A, that determined EC₅₀ values for antigen-specific binding, CD8-overexpressing HEK293T cells were dissociated in Versine solution (PBS buffer at pH 7.4 supplemented with 0.5 mM EDTA), and 2×10⁵ total cells were transferred to a V-bottom 96 well culture plate (Corning). Cells were washed twice with Cell Staining buffer (#420201, Biolegend). Each anti-CD8α antibody with human IgG1 isotype and Fc-silencing mutations L234A, L235A and P329A was diluted in four-fold antibody titration series from 100 μg/mL to 6.1 ng/ml into Cell Staining buffer. eFluor 780 Fixable Viability dye (eBioscience) was also included during antibody solutions at a 1:4000 dilution. Cells were stained with each diluted antibody solution for 30 minutes on ice. Cells were then washed three times with Cell Staining buffer and primary antibody binding was detected by staining with anti-human Fc BV421 conjugate antibody (#410704, Biolegend) at 1:100 dilution for 30 minutes on ice. After staining with the secondary detection antibody, cells were washed three times with Cell Staining buffer, fixed in FluoroFix buffer (Biolegend) and kept at 4° C. in the dark until analysis. Flow cytometry analysis on each sample was performed on an Agilent NovoCyte flow cytometer. Flow cytometry data was analyzed by Flowjo 10 (Becton, Dickinson & Company) to measure the geometric median fluorescence intensity (gMFI) of the on-cell binding from each antibody. The gMFI values were normalized with the gMFI measured in the sample stained with only the secondary detection antibody and plotted against the concentration of the added antibodies. The binding curves were constructed using the Graphpad Prism software, and EC₅₀ values were determined by non-linear curve fitting.

[2] = molecular target: T2, human CD8αα homodimer, recombinant protein (Acro Biosystems) (human, UniProt P01732 22-182); test: BLI steady state, whole hIgG1-LALAPA antibody on CD8α-His (Ni-NTA sensor), 30 °C
T2 construct: also called CD8αα antigen; biotinylated CD8α recombinant protein (CDA-H82E3)
Method: (§1) To assess affinity of whole antibodies, steady state analysis was used as the bivalent nature of both whole antibody and CD8α complicates kinetic analysis. 50 nM CD8α-His (that is, CD8α with a C-terminal oligohistidine tag; Acro) was immobilized on Ni-NTA sensor probes. Binding was analyzed with a three-fold antibody dilutions series: 60 nM, 20 nM, 6.67 nM, 2.22 nM, 0.74 nM, and 0.25 nM. The antigen-loaded sensors were incubated in the diluted solutions to capture the whole IgG antibody for 300 s to record the association phase. Sensors were incubated in the kinetic buffer for 900 s to record the dissociation phase. The spin speed was 1000 rpm for all steps except the antigen loading step which was 400 rpm to control density of the antigen. The temperature of the performed assays was at 30° C. during the association and dissociation phases. The sensor data were baseline subtracted and further analyzed in GatorOne software (version 2.10) to determine the equilibrium dissociation constants (KD) of the antibodies by fitting the signals of the steady states to the 1:1 binding model.

insulin (Sigma) = molecular target: T3, insulin (Sigma); test: polyreactive ELISA, insulin coated, 100 nM antibody
T3 construct: Antigen of the polyreactivity ELISA
Method: Insulin ([…]; Sigma) and dsDNA ([…]; Sigma) were coated onto 96-well high-binding ELISA microplates (Corning) at 50 μL per well overnight at 4° C. Plates were blocked with PBS with 0.5% BSA (blocking buffer) at room temperature (RT) for 1 h, followed by three washes with PBST (PBS with 0.1% Tween-20). 50 μL of 100 nM antibody in blocking buffer was added to each well and incubated at RT for 1 h, followed by six washes with 100 μL of PBS. 50 μL of diluted anti-human IgG-horseradish peroxidase (HRP) conjugate (Jackson ImmunoResearch) was added to the wells and incubated for 1 h followed by another six washes. Finally, 50 μL of 3, 3′, 5, 5′-Tetramethylbenzidine (TMB) substrate (Fisher Scientific) was added to each well to develop the detection signal. The reactions were stopped by adding 50 μL of 2 M sulfuric acid to each well. The absorbance was measured at 450 nm using a multimode microplate reader. Ustekinumab as the control antibody with low polyreactivity and bococizumab as a highly polyreactive antibody control were also included in the polyreactive ELISA assessment.
The first assessment tested for low non-specific binding to dsDNA and insulin by ELISA. […] Thus, by this standard, none of the tested antibodies were polyreactive.

[3] = molecular target: T2, human CD8αα homodimer, recombinant …; test: BLI steady state, whole hIgG1-LALAPA antibody on CD8α-His (Ni-NTA sensor), 30 °C; remark: listed apart in the source
Method: as §1

[4] = molecular target: T2, human CD8αα homodimer, recombinant …; test: BLI steady state analysis of the data of FIG. 2G
Method: as §1

[5] = molecular target: T4, custom recombinant human CD8α mouse IgG2a Fc fusion protein (human; mouse, UniProt P01732 22-182, limits assumed); test: BLI kinetics, biotin-conjugated F(ab') on SA-XT sensor, HuCD8a mouse Fc fusion as analyte, 37 °C
T4 construct: Custom protein; also called human CD8α mouse Fc fusion protein; not shown: mouse IgG2a Fc
Method: (§2) The global fitting was performed with a 1:1 fitting model using GatorOne software as described below.
(§3) To measure the binding kinetics of the biotin-conjugated Fab molecule, streptavidin-immobilized SA-XT sensors (#160029, Gator Bio) were prehydrated in the kinetic buffer and loaded with […] biotinylated Fab sample CBD1033.37 or CBD1033.24 to a threshold response of 10 nm. […] The binder-loaded sensors were incubated in the diluted solutions to capture the CD8α protein for 1200 s to record the association phase. Sensors were finally incubated in the kinetic buffer for another 1200 s to record the dissociation phase. The spin speed for all steps was 1000 rpm. The temperature of the performed assays were at 37° C. during the association and dissociation. The sensor data were baseline subtracted, and global curve fitting of the kinetic data from six different analyte concentrations at a 1:1 monovalent binding model was performed using the GatorOne software (version v2.10) to determine the kinetic rate constants (kₒₙ and koff) and equilibrium dissociation constants (KD) of the analyzed binder.

[6] = molecular target: T4, custom recombinant human CD8α mouse …; test: BLI kinetic sensorgram, 1:1 global fit, 37 °C
Method: as §2, §3

[7] = molecular target: T2, human CD8αα homodimer, recombinant …; test: BLI kinetic sensorgram, 1:1 global fit
Method: as §2, §3

[8] = molecular target: T2, human CD8αα homodimer, recombinant …; test: BLI kinetic assay, engineered F(ab') fragment
Method: as §2
Biolayer interferometry kinetic assays were performed using a GatorBio Gator Plus BLI system. Kinetic buffer containing PBS plus 0.1% Tween 20 and 0.2% BSA was used for calculating the baseline. To measure the binding kinetics of anti-CD8α antibody fragment (Fab), streptavidin-immobilized SA-XT sensors (#160029, Gator Bio) were prehydrated in the kinetic buffer and loaded with […] biotinylated CD8α recombinant protein (CDA-H82E3, Acro Biosystems) at a spin speed of 400 rpm to a threshold response of 10 nm. The sensors were then incubated in the kinetic buffer for 300 s to acquire a baseline measurement prior to each association. […] The antigen-loaded sensors were incubated in the diluted solutions to capture Fab fragments for 300 s to record the association phase. Sensors were finally incubated in the kinetic buffer for 900 s to record the dissociation phase. The spin speed for all steps except the antigen loading step was 1000 rpm. The temperature of the performed assays was either 30° C. or 37° C. during the association and dissociation phases. Sensor data were baseline subtracted, and global curve fitting of the kinetic data from six different analyte concentrations at a 1:1 monovalent binding model was performed using GatorOne software (version v2.10) to determine kinetic rate constants (kₒₙ and koff) and equilibrium dissociation constants (KD) of the analyzed antibodies.

[9] = molecular target: T2, human CD8αα homodimer, recombinant …; test: BLI, whole antibody, steady state dissociation constant (column head x10^-9M)
Method: as §1

[10] = molecular target: T2, human CD8αα homodimer, recombinant …; test: BLI, whole antibody
[11] = molecular target: T2, human CD8αα homodimer, recombinant …; test: BLI kinetic rate KD on whole antibodies

T1 sequence (P01732 22-235): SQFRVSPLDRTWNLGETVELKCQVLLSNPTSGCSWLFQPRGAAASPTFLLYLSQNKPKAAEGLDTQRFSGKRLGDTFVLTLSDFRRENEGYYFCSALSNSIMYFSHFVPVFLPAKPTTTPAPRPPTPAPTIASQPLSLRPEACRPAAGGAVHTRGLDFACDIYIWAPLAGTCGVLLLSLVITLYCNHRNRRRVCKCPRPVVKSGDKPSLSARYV
T3 sequence (P01308 25-54, chain 1 of 2): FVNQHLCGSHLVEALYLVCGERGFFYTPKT
T3 sequence (P01308 90-110, chain 2 of 2): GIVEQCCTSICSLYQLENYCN
T4 sequence (P01732 22-182 limits assumed): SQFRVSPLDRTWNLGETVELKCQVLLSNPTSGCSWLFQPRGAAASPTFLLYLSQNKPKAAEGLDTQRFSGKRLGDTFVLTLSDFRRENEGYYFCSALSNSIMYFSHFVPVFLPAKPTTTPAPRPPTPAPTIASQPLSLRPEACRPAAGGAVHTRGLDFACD
T2 sequence (P01732 22-182 limits assumed): as above

B2: CBD1043 (antibody, human IgG1, kappa, L234A L235A, V domains shown)
VH: QVQLVQSGAEVKKPGASVKVSCKASRYTFTDYNLHWVRQAPGQGLEWIGFIYPYNGGTGYAQKFQGRVTITADTSTSTAYMELSSLRSEDTAVYYCARDHRYNEGVSFDYWGQGTLVTVSS
VL: EIVLTQSPGTLSLSPGERATLSCRASESVDGFGNSFMNWYQQKPGQAPRLLIYLASNLESGVPARFSGSGSGTDFTLTISRLEPEDFAVYYCQQNNEDPYTFGQGTKVEIKR
notes: also called CBD1043- hIgG1LALAPA; h1017-H7/L5 whole antibody
Kd [3]: 3.91 nM | Kd [4]: 3.91 nM

B3: maleimide-PEG-biotin conjugated CBD1033.37 F(ab') (Fab, V domains shown)
VH: B2 VH with I48M, I70M, A72V, L116T
VL: DIQLTQSPSSLSASVGDRATITCRASESVDGFGNSFMNWYQQKPGKAPKLLIYLASNLESGVPSRFSGSGSGTDFTLTISSVQPEDFATYYCQQNNEDPYTFGQGTKLEIKR
modifications: maleimide-PEG11-biotin on CH C230 (sequential numbering, corresponding to C239 in Kabat numbering)
notes: Loaded on streptavidin sensors through the biotin; also called biotinylated Fab sample CBD1033.37
Kd [5]: 6.85 nM | koff [5]: 0.000144 s⁻¹ | kon [5]: 20900 M⁻¹ s⁻¹ | Kd [6]: 6.85 nM | koff [6]: 0.000144 s⁻¹ | kon [6]: 20900 M⁻¹ s⁻¹

B4: CBD1033.37 disulfide-engineered F(ab') analog (IgG1-derived) (Fab, V domains shown)
VH: B2 VH with I48M, I70M, A72V, L116T
VL: B3 VL
notes: Engineered CH1-F174C / CK-S162C interchain disulfide; native disulfide removed; also called .37 design
Kd [7]: 4.01 nM | koff [7]: 6.28e-05 s⁻¹ | kon [7]: 15600 M⁻¹ s⁻¹ | Kd [8]: 4.01 nM | koff [8]: 6.28e-05 s⁻¹ | kon [8]: 15600 M⁻¹ s⁻¹

B6: CBD1040 whole antibody, Fc-silenced human IgG1 (LALAPA) (antibody, V domains shown)
VH: B2 VH with V20I, V68A, I70L, A72V, T74Y, L116T, V117L
VL: B3 VL with G72R
EC50 [1]: 2.54 nM | Kd [2]: 4.06 nM | polyreactivity ELISA score (insulin (Sigma)): 1

B8: CBD1381 whole antibody (VH N55Q of CBD1033), Fc-silenced human IgG1 (antibody, V domains shown)
VH: B2 VH with I48M, N55Q, I70M, A72V, L116T
VL: B3 VL
Kd [9]: 0.5 nM | koff [10]: 0.000795 s⁻¹ | kon [10]: 1.91e+06 M⁻¹ s⁻¹

B10: CBD1039 whole antibody, Fc-silenced human IgG1 (LALAPA) (antibody, V domains shown)
VH: B2 VH with V20I, V68A, I70L, A72V, T74Y, L116T, V117L
VL: B3 VL
EC50 [1]: 4.39 nM | Kd [2]: 1.76 nM | polyreactivity ELISA score (insulin (Sigma)): 1

Second part, the binder after the results:

EC50 [1]: 1.75 nM | Kd [2]: 2.66 nM | polyreactivity ELISA score (insulin (Sigma)): 1
B1: CBD1035 whole antibody, Fc-silenced human IgG1 (LALAPA) (antibody, V domains shown)
VH: B2 VH with V20I, V68A, I70L, A72V, L116T, V117L
VL: B3 VL

Kd [9]: 0.76 nM | koff [10]: 0.00192 s⁻¹ | kon [10]: 1.86e+06 M⁻¹ s⁻¹
B5: CBD1380 whole antibody (VH N55S of CBD1033), Fc-silenced human IgG1 (antibody, V domains shown)
VH: B2 VH with I48M, N55S, I70M, A72V, L116T
VL: B3 VL

Kd [9]: 7.94 nM | koff [10]: 0.00303 s⁻¹ | kon [10]: 1.1e+06 M⁻¹ s⁻¹ | fold reduction of affinity compared to CBD1033 [11]: ~5.5 fold
B7: CBD1383 whole antibody (VH N55D of CBD1033, deamidation mimic), Fc-silenced human IgG1 (antibody, V domains shown)
VH: B2 VH with I48M, N55D, I70M, A72V, L116T
VL: B3 VL
notes: also called 100% deamidation mimic

Kd [9]: 0.88 nM | koff [10]: 0.00195 s⁻¹ | kon [10]: 1.63e+06 M⁻¹ s⁻¹
B9: CBD1382 whole antibody (VH N55A of CBD1033), Fc-silenced human IgG1 (antibody, V domains shown)
VH: B2 VH with I48M, N55A, I70M, A72V, L116T
VL: B3 VL
